# Laboratory results taken from US20110008814A1.
# Columns and labels:
# [1] = biological target: mouse IgG, anti-human transferrin monoclonal antibody (mfd. by BIO MATRIX RESEARCH, INC.); assay: human transferrin sandwich ELISA, 1 ng/ml transferrin, luminol emission
# [2] = biological target: mouse IgG, anti-human transferrin monoclonal antibody (mfd. by BIO MATRIX RESEARCH, INC.); assay: human transferrin sandwich ELISA, 100 ng/ml transferrin, luminol emission
# [3] = biological target: mouse IgG, anti-human transferrin monoclonal antibody (mfd. by BIO MATRIX RESEARCH, INC.); assay: direct ELISA on immobilized mouse IgG, ABTS; reference Comparative Examples 1 and 2
# [4] = biological target: mouse IgG, anti-human transferrin monoclonal antibody (mfd. by BIO MATRIX RESEARCH, INC.); assay: human transferrin sandwich ELISA, 100 ng/ml transferrin, 375 ng/ml labeled antibody, ABTS
# [5] = biological target: mouse IgG, anti-human transferrin monoclonal antibody (mfd. by BIO MATRIX RESEARCH, INC.); assay: direct ELISA, mouse IgG immobilized from 10 ng/ml, about 0.8 µg/ml secondary antibody, ABTS
# [6] = biological target: mouse IgG, anti-human transferrin monoclonal antibody (mfd. by BIO MATRIX RESEARCH, INC.); assay: direct ELISA, mouse IgG immobilized from 100 ng/ml, about 0.8 µg/ml secondary antibody, ABTS
# [7] = biological target: mouse IgG, anti-human transferrin monoclonal antibody (mfd. by BIO MATRIX RESEARCH, INC.); assay: human transferrin sandwich ELISA, 100 ng/ml transferrin, ABTS; reference Comparative Example 3
# [8] = biological target: mouse IgG, anti-human transferrin monoclonal antibody (mfd. by BIO MATRIX RESEARCH, INC.); assay: human transferrin sandwich ELISA, 1 ng/ml transferrin, luminol emission; reference Comparative Example 7
# [9] = biological target: mouse IgG, anti-human transferrin monoclonal antibody (mfd. by BIO MATRIX RESEARCH, INC.); assay: human transferrin sandwich ELISA, 100 ng/ml transferrin, luminol emission; reference Comparative Examples 6 to 8
# [10] = biological target: mouse IgG, anti-human transferrin monoclonal antibody (mfd. by BIO MATRIX RESEARCH, INC.); assay: human transferrin sandwich ELISA, 1 ng/ml transferrin, luminol emission; reference horseradish POD-labeled antibodies
# [11] = biological target: mouse IgG, anti-human transferrin monoclonal antibody (mfd. by BIO MATRIX RESEARCH, INC.); assay: human transferrin sandwich ELISA, 100 ng/ml transferrin, 400 ng/ml labeled antibody, ABTS
initial stage emission value [1],initial stage emission value [2],fold of absorbance against the horseradish POD-labeled antibody [3],absorbance at 405 nm [4],absorbance at 405 nm [5],absorbance at 405 nm [6],fold of absorbance against the horseradish POD-labeled antibody [7],fold of initial stage emission value against the horseradish POD-labeled antibody [8],fold of initial stage emission value against the horseradish POD-labeled antibodies [9],fold of initial stage emission value against the horseradish POD-labeled antibodies [10],absorbance at 405 nm [11],Substance
800000 RLU,4.2e+06 RLU,1.3 to 1.4 times,1,0.4,1.9,2.2 times,8 times,> 18 times,,,"POD-labeled anti-mouse Fab′ (goat anti-mouse IgG (H+L) antibody, Bethyl A90-116A, pepsin-digested and reduced to Fab′, labeled with maleimidated POD)"
300000 RLU,3.5e+06 RLU,,,,,,,> 14 times,> 3 times,,"POD-labeled anti-mouse IgG (goat anti-mouse IgG (H+L) antibody, Bethyl A90-116A, reduced and labeled with maleimidated POD)"
,,,,0.3,1.4,,,,,0.45,Peroxidase-conjugated AffiniPure F(ab′)2 Fragment Goat Anti-mouse IgG (H+L) (mfd. by Jackson ImmunoResearch Labs.)
100000 RLU,,,,0.3,1.4,,,,,,Peroxidase-conjugated AffiniPure Goat Anti-mouse IgG (H+L) (mfd. by Jackson ImmunoResearch Labs.) (antibody)
